We go through three molecules from publication PMC7907199, “Prokaryotic Argonaute from Archaeoglobus fulgidus interacts with DNA as a homodimer” (Scientific Reports, 2020).

Data set [1] deals with AfAgoΔ (dimerization mutant of AfAgo lacking residues 296–303) (Archaeoglobus fulgidus) (UniProt O28951).
Data set [2] concerns the molecule itself. The data set is described as follows: SEC-MALS; apo proteins without nucleic acids; 1.0 mg/mL (20 µM monomer), 2.0 mL injected; HiLoad 16/60 Superdex 200; 100 mM Tris–HCl pH 8.0, 1000 mM NaCl, 0.04% NaN3; dimer to monomers. On the technique in general: In gel filtration, larger molecules generally elute earlier.
Data set [3] concerns the molecule itself. The data set is described as follows: cell-based or functional assay.
Data set [4] has as its target T1, AfAgoΔ (dimerization mutant) (Archaeoglobus fulgidus (ATCC 49558), UniProt O28951 1-427, del296-303).
T1 sequence: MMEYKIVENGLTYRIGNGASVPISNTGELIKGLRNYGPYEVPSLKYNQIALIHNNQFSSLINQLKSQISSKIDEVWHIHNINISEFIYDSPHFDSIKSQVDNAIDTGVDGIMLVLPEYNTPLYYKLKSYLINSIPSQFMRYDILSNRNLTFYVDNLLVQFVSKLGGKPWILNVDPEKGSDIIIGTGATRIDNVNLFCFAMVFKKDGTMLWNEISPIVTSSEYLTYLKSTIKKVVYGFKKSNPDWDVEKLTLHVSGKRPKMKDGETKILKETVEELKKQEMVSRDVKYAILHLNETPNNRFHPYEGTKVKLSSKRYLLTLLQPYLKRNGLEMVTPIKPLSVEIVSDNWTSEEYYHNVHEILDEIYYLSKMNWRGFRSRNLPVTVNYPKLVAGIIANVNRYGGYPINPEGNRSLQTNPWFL
The data set can be described thus: SEC-MALS; 5 mM MgCl2; 5 uM protein monomer, 5 uM duplex; major peak 1:1 protein:DNA; SEC-MALS of complexes: 15 mM Tris-HCl pH 8.0, 150 mM NaCl, 5 mM MgCl2, 0.5 mM DTT, 0.04% NaN3; EMSA, AFM and smFRET buffers not in the material. The conditions noted are these: protein: recombinant; blunt; self-complementary, 2 copies of the strand.

Data set [5] concerns the target T2, WT AfAgo (Archaeoglobus fulgidus (ATCC 49558), UniProt O28951 1-427).
T2 sequence: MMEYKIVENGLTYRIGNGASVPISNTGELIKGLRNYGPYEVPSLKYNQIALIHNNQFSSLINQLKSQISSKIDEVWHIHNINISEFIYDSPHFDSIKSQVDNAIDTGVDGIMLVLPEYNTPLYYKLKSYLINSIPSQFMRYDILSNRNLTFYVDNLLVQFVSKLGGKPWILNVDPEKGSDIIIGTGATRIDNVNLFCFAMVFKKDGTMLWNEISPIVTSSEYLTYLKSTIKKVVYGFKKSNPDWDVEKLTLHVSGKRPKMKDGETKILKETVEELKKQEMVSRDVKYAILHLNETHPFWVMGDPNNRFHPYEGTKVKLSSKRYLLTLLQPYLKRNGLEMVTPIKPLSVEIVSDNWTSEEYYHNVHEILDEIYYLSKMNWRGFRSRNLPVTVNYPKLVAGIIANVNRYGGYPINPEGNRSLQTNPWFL
The data set can be described thus: SEC-MALS; 5 mM MgCl2; 5 uM protein monomer, 5 uM duplex; mostly 2:2 protein:DNA; SEC-MALS of complexes: 15 mM Tris-HCl pH 8.0, 150 mM NaCl, 5 mM MgCl2, 0.5 mM DTT, 0.04% NaN3; EMSA, AFM and smFRET buffers not in the material. As to conditions: protein: recombinant; chain copies: 2; blunt; self-complementary, 2 copies of the strand.

Regarding “AfAgoΔ (dimerization mutant of AfAgo lacking residues 296–303) (from UniProt O28951 1-427) (natural protein)”, the AFM: DNA loops, % of protein–DNA complexes in data set [1] came to 26%.

B1: WT AfAgo (prokaryotic Argonaute from Archaeoglobus fulgidus, full-length wild type) (natural protein, UniProt O28951 1-427, looked up)
chain: MMEYKIVENGLTYRIGNGASVPISNTGELIKGLRNYGPYEVPSLKYNQIALIHNNQFSSLINQLKSQISSKIDEVWHIHNINISEFIYDSPHFDSIKSQVDNAIDTGVDGIMLVLPEYNTPLYYKLKSYLINSIPSQFMRYDILSNRNLTFYVDNLLVQFVSKLGGKPWILNVDPEKGSDIIIGTGATRIDNVNLFCFAMVFKKDGTMLWNEISPIVTSSEYLTYLKSTIKKVVYGFKKSNPDWDVEKLTLHVSGKRPKMKDGETKILKETVEELKKQEMVSRDVKYAILHLNETHPFWVMGDPNNRFHPYEGTKVKLSSKRYLLTLLQPYLKRNGLEMVTPIKPLSVEIVSDNWTSEEYYHNVHEILDEIYYLSKMNWRGFRSRNLPVTVNYPKLVAGIIANVNRYGGYPINPEGNRSLQTNPWFL
notes: The printed theoretical Mw of the monomer in the assays (50.8 kDa) is 49.2 kDa plus the 1.63 kDa tag, so the tag was on the protein; In some assays the protein carried a 5'-phosphorylated DNA duplex (MZ-1289) or a long DNA fragment; also called apo-AfAgo; source: E. coli BL21(DE3), purified (Ni2+ HiTrap chelating, RNase A/T1 treatment, HiTrap Heparin, Superdex 200)
In general, stoichiometry N refers to a count of units in the complex or per binding partner. On to B1, for which the “stoichiometry N” value in data set [2] was 2. In data set [3], the “smFRET in solution: DNA looping efficiency K (ratio of looped to unlooped dual-labelled 569 bp DNA) against WT AfAgo concentration; maximum at 2 nM, lower at higher concentrations” value stood at 2.5.

B2: MZ-1289 oligoduplex (dsDNA)
DNA 1: ATTGTACGTACAAT
DNA 2: ATTGTACGTACAAT
modifications: 5'-phosphate
Consider B2, for which the binding result in data set [4] and in data set [5] was “binds” throughout.
